In patent US20240067950A1, “MEANS AND METHODS FOR DETOXIFYING OCHRATOXIN A” (DSM Austria GmbH, priority 2020, published 2024):

B1: SEQ ID NO: 1: OTA-hydrolyzing polypeptide 1 of the present invention, recombinantly produced in E. coli (protein)
chain: MSDHLPADVRDLIRQTMSRLENLVPPSAAFDDETQDAVFEAIDSIDGDMLALNKAIHDNPELGFHEVKAHHHLVQALIKLGFAVTNPTSLPTAFVATWSHGSGGRTFGFNAEYDALPGVGHACGHNLIAIVAVASAAGLKAALKARNIPGTIKVIGSPAEEGGGGKVILLNEGAYDGIDACVMAHPEGGVPGIDDDGSAYTSGPATLARAGFSVELFGKAAHAGAAPWLGVNALDAAVQGYTAVSMLRQQIEPTMRVHGVFDYGKEKWVQNIIPAYAKVEYSTRALDVKSTLELRKKVISCFESAATATGCTHKVSAPETEVYAELRNNVTLADAYADFMTTAFGQKIGRVGITTASTDFGNVTYKMPAIHPGFHLISKGVNHTPEFADAAGTLDAHERAIKVAKGLAMLGAKFLQDDKFAKEVKRKFDEFKKEVGELKLTDNENEVQEVNGVMKQEHIAEQVDEIWL
modifications: OTA hydrolyzing polypeptide 1
notes: OTA-hydrolyzing polypeptide 1 of the present invention, recombinantly produced in E. coli
B2: SEQ ID NO: 2: OTA-hydrolyzing polypeptide 2 of the present invention, recombinantly produced in E. coli (protein)
chain: MARDEIPADVKALIAQTVTALHGLAPPSAEFDDETQDAVFEAIDAIDGAMWDLNKKIHDHPELGFKEHKARANLVAALCKLGFTVTNPSSLPTAFVATYTQGHGGRTFGVDAEYDALPEVGHACGHNLIAVAAVAAAAGLKAALKARNIAGTIKLIGSPAEEGGGGKVILLNEGVYDCLDACVMAHPEGGMIGNDYDGSAYVGGPASLARAGFEIEFHGRGAHAGAAPWLGINALDAAVQGYTAVSMLRQQLEPTMRVHGIIQGSEKWAQNIIPSYAKVSYSTRALDVKKTLELRDKTVDCFASAAKATGCTYELTAPETEVYAELRNNEPLADAYADLMTHAFGQKIERRGMTTASTDFGNVTYHVPAIHPGFTIESDTVNHTAGFTEAAGKKGAHERTMKVAKGLAMVGAKFLADDKFAKDVRKAFEKFKKGAQ
modifications: OTA hydrolyzing polypeptide 2
notes: OTA-hydrolyzing polypeptide 2 of the present invention, recombinantly produced in E. coli
B3: SEQ ID NO: 3: OTA-hydrolyzing polypeptide 3 of the present invention, recombinantly produced in E. coli (protein)
chain: MARDEIPADVKALIAQTVTALHGLAPPSAEFDDETQDAVFEAIDAIDDAMWDLNKKIHDHPELGFEEHKARANLVAALCKLGFTVTNPSSLPTAFVATYTHGHGGRTFGVDAEYDALRDVGHACGHNLIAVAAVAAAAGLKAALKARNISGTVKLIGSPAEEGGGGKVILLNEGVYDCLDACVMAHPEGGMIGDDYDGSAYVGGPASLARAGFEIEFHGRGAHAGAAPWLGINALDAAVQGYTAVSMLRQQLEPTMRVHGIIQGSEKWAQNIIPSYAKVSYSTRALDVKKTLELRDKTVDCFASAAKATGCTYDVTAPETEVYAELRNNQPLADAYADLMTKAFGQKIERRGMTTASTDFGNVTYHLPAIHPGFTIESETVNHTKGFTEAAGKKDAHERTMKVAKGLAMVGAKFLADDKFAKDVRKAFEKFKREVE
modifications: OTA hydrolyzing polypeptide 3
notes: OTA-hydrolyzing polypeptide 3 of the present invention, recombinantly produced in E. coli
B4: SEQ ID NO: 4: OTA-hydrolyzing polypeptide 4 of the present invention, recombinantly produced in E. coli (protein)
chain: MARDPLPADVRLLIRNNMASAHPQVPTIDGLDSKTQNDVFTAIDAINNDMRDLSLAIHENPELGFKEVKAHANLVKALSKLGFTITNPTSLETAFVATWSNGSGGRTFGFNAEYDALPGIGHACGHNLIAIVAVASAVGCKAAMEKQGISGTIKVIGSPAEEGGGGKIILFNEGVYDGLDACAMAHPGGGMPADGYDGQAPAEGKPASLARAGFIVDFVGKPAHAGAAPWMGVNAVDAAVLGYNGVSMLRQQLEPTVRVHGVIRGPNDWVNNIIPASSHVEYDVRAPDVKQAMAVRNKAIACFESAAHATGCSHTTQSKDKDIYAELRNSIRMAGVYADIMEEVFDQHIQRDGMTTASTDFGNITISACPAVHPMYLIETDGVNHTPEFTAGAATMDSHERSIKVAKGLALLGFKVLTDDVFAKKIKDEFEEQKKRLGA
modifications: OTA hydrolyzing polypeptide 4
notes: OTA-hydrolyzing polypeptide 4 of the present invention, recombinantly produced in E. coli

Legend:
[1] = OTA hydrolyzing activity assay (specific activity); type: biochemical; conditions: 37° C., 200 ng/mL OTA in 100 mM sodium phosphate buffer
Experimental: To determine the specific activity of recombinant target polypeptides produced e.g. as described in Example 1 above in units per liter (U/L), ochratoxin A (OTA) hydrolyzing activity assays were performed. One unit is defined as the amount of enzyme necessary for hydrolysis of 1 μmol or OTA in 1 min when using a starting OTA concentration of 0.495 μM.
OTA hydrolyzing activity assays were set up in a final volume of the reaction mixture of 200 μL, containing the recombinant enzyme preparation (preferably diluted to yield a volumetric activity of 1-10 mU/L), and 200 ng/mL OTA in 100 mM sodium phosphate buffer.
Specific activities were determined at pH 6.0 and pH 7.5. As soon as all components of the reaction mixture were mixed, OTA hydrolysis was followed at 37° C. on a fluorescence spectrophotometer (BioTek Synergy H1 MFD Multimode microplate reader) by following the reduction in fluorescence at ex/em 390 nm/450 nm.
For calculation of the specific activity, the initial linear part of the recorded fluorescence reduction curve was used. In addition to the fluorescence-based method described above, OTA hydrolysis was also determined by using the HPLC-MS method as described by Dellafiora et al. 2020, Toxins 12, 258, essentially confirming the fluorescence-based results. The specific activities for the polypeptides having amino acid sequences of SEQ ID NOs: 1-4 at different pH are shown in Table 1.

[2] = Thermostability assay (residual OTA hydrolyzing activity after 10 min heat incubation); type: physicochemical; conditions: 10 min incubation at 45, 55, 65, 75 or 85 ° C.; 0.1 mg/mL in 20 mM Tris-HCl pH 7.5; relative to 4° C. reference aliquot
Experimental: To determine the kinetic stability of the produced enzymes towards temperature, thermostability assays were performed. To this end, purified protein samples were diluted to a protein concentration of 0.1 mg/mL in 20 mM Tris-HCl buffer pH 7.5 and aliquots were incubated in a thermocycler for 10 min at either 45, 55, 65, 75 or 85 ° C. After this incubation, the aliquots were stored at 4° C. until further analysis. A reference aliquot was stored at 4° C. throughout the incubation. Subsequently, all aliquots were assayed for residual OTA hydrolyzing activity using the assay described in Example 2. Residual enzyme activities were calculated relative to the reference aliquot. The temperature range in which 50% of the initial activity was lost after the incubation, in relation to the reference aliquot was determined.

[3] = Piglet feeding trial, OTA in plasma and urine by HPLC-MS; type: in vivo, piglets; conditions: for OTA concentration, plasma samples, Day 14 / OTA concentration, urine samples, Day 14: piglets; for % OTA reduction, plasma samples / % OTA reduction, urine samples: day 14
Experimental: To verify the applicability of the produced enzymes as food or feed additive, piglet feeding trials were conducted. To this end, sufficient amounts of the polypeptide of SEQ ID NO: 1 were produced by cultivation of E. coli transformants in bioreactors. The cell broth was homogenized and centrifuged. The supernatant was concentrated, dried by lyophilization and formulated as a powder by grinding. The enzymatic activity of the thus obtained lyophilized powder was determined, and the powder was mixed with feed for the feeding trial as described in the following.
Five piglet groups were studied based on the following five experimental diet setups: 1) Base feed; 2) base feed+50 ppb OTA; 3) base feed+50 ppb OTA+169 mU of the enzyme of SEQ ID NO: 1 per kg of feed; 4) base feed+500 ppb OTA; 5) base feed+500 ppb OTA+169 mU of the enzyme of SEQ ID NO: 1 per kg of feed.
Each trial group consisted of four piglets weighing approximately 7-8 kg, who were coming out from weaning and adapted to solid diet before being fed the experimental diet as described above. The duration of the feeding trial (i.e. actual days of feeding the experimental diet) was fourteen days. Collectively each trial group consumed around 15 kg of feed. No piglets fell sick to any unexpected disease throughout the feeding trial. Urine and blood samples were collected on day 0, just before starting the experimental diet, and on day 14.
Extraction of OTA was performed from plasma and urine samples for subsequent analysis by HPLC-MS. 200 μL of sample was thoroughly mixed with 800 μL of extraction solution (containing 99% of ethyl acetate and 1% of phosphoric acid, 85%) followed by centrifugation at 19000×g for 5 min for phase separation. 50 μL of upper phase was diluted with 50 μL of acetonitrile, followed by HPLC-MS analysis. The H PLC-MS method as described by Dellafiora et al. 2020, Toxins 12, 258 was used to determine the changes in OTA concentration in the samples taken during the trial upon consumption of the experimental diets. The results are shown in Table 3 using the diet setup numbering as indicated above.

[4] = diet setup 3: base feed+50 ppb OTA+169 mU enzyme per kg of feed
[5] = diet setup 5: base feed+500 ppb OTA+169 mU enzyme per kg of feed

Molecule | Specific OTA hydrolyzing activity ([1]; pH 6) [U/g] | Specific OTA hydrolyzing activity ([1]; pH 7.5) [U/g] | Temperature range in which 50% of the initial activity was lost [2] | OTA concentration, plasma samples, Day 14 [3, 4] | OTA concentration, urine samples, Day 14 [3, 4] | % OTA reduction, plasma samples [3, 4] [%] | % OTA reduction, urine samples [3, 4] [%] | OTA concentration, plasma samples, Day 14 [3, 5] | OTA concentration, urine samples, Day 14 [3, 5] | % OTA reduction, plasma samples [3, 5] [%] | % OTA reduction, urine samples [3, 5] [%]
B1 | 0.11 | 1.20 | 45-55 °C | 37 ± 3 | 0.00 | 9 | 100.0 | 350 ± 25 | 25.18 | 15 | 48.4
B2 | 3.53 | 11.01 | 65-75 °C | – | – | – | – | – | – | – | –
B3 | 0.63 | 1.44 | 55-65 °C | – | – | – | – | – | – | – | –
B4 | 1.57 | 1.43 | 45-55 °C | – | – | – | – | – | – | – | –
